47 sequences from the NTF2 design screens of Basanta et al. (2020) can be followed below.

The nature of this data set: protease stability score; higher = more stable; yeast display proteolysis, trypsin and chymotrypsin.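 Also: relative to predicted unfolded state with 0 unfolded-like and 1 meaning tenfold more protease.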
“DEEDKHLIDMFRILMRTIETGNEEETRKLMDPHTIIEIGDKRSHGWESWKKFIEDLERRFDHVRIEIEDVKVQGDKAIVRTRLKLIVGDKHFEHDTRIFVVMVNGRIHTFRVEID” came in with a protease stability score of 1.48.
Take “DEEDKHLQEMVEKLVKNWLTGDWDKLRELLDPNTKSNIGEYTSIGWEKDAEAFEKLIHELGIKHMNFLIRRIHVVDGRAHSDVEIELEVDGRNTEVKTHLIVVIINGRVKSITVEYK”: the protease stability score was determined as 0.297.
Regarding “DEEDKKVKYFLNEWLHAVKTGDEEHLKRLADPRTYEQVGDKHYHGRETFRRFLHDLLEEMRFHRIHIKFSQMVNGVFYVNGELDGTFDGRRHRTDMRLEFEVVNGRIHELRIEIV”, the protease stability score came to 1.18.
For “DEEDKLSKEFSRTWEEIWRTGDEQEIKHLADPDTRDLVYIDGVNIDNHGREEMSRSMREWRDKFKNAREHVTHSRAQGDKVEMRIRIDFNGREIDMIVKIIVVDGRLKEFEIEIR”, the protease stability score is 1.56.
Next, “DEEDKMAEFFMRLIFRAWLTGDEEELEKFMDPNTKHNLDIDGRNDHQIGRHEIVHHLKHFWRRYDHVQVKIRKYHIQGEKAHLHGHLILFIDGVEIRHNIEIRVVVINGRVHSVTMHIH”: 1.79; “DEEDKMVRVLVELWVENFITGDEEKLYELMDPDTRLEIDGVENHGMEKAIEFLERHREHYGVDHIHLIIHEVKHQGNKAHIDGILEFRQGDKQIELHWELHFEVVNGRMKEVHVNTR”: 2.29.
Turning to “DEEDKNTHEFARRIIESWVTGDWKDLHELIDPHARLILDVGNKKEIYHGREEVKRRLLREIEKFKNVRFEIRDLHVVGDKVDAEVTLHIDGKDIEIHIHLLIVNGKVKEIRLHYH”, the protease stability score turned out to be 2.27.
Next, “DEEDKWDELLLEILIRIEKTGDEEKWLRFLDPHVRLDVDGQEVHGREEVVRVQKEWKERLGVKHIVIKRTKVVNGRIDMDKVMNVDGVNIKVHYHYHLVNGVLHEVEVRLE”: 0.992.
Next, “DEEDKWETHFLKVLEDSLKTGDETSLERMADPTARLSVGDKEHHGRDLLFFWIHKLLREAGVDKVESELHDEERQGEKVIVDIHLRVGDKVLRVIFYIYKYNGQWFIRSIEVE”: 1.04; “DEEDMDEVEKAIRKNDPEKMRDLADENAKASVGDNQFHGRDNVENFMKHLTDHADHVQVDSVEKHNGRVVVNAQLDINGEQIQIVIRIDVHNGKIKRFSIEVRDEEAHHFMREMVS”: 0.686; “DEEDNMMREIWKQLVDNQRTGDEDRLQDLIDPHVRIIINIDGRELRSHGRHELVRWLREMGVDYLDIKSYRLQGDKIETDGTLSIGDKTKEVEVRYNIIDGRTKEVEFHLR”: 0.167.
As to “DEEDQDWERILEELLRSLLTGDEEFIRRLIDPNVRMHIKQGDKRINLHGRDAIEKLLELLHRRIKGVRIEIKRHDIQGDKIYVDGVINIDGKEFKIIIHIIVINGRLHTVSFETE”, the protease stability score is 1.9.
In turn, “DEEDQFTEKITRILHEIHRTGDFEKWEKLADPHVKVVIGEFEQHGRETASWVIEWLARYMGIKHIELRDHRVINGVVHLEHEVKVGDKRIDLELRHFVYDGRLKETEIRFR” displayed a protease stability score of 0.734.
Turning to “DEEDRDAEFFMRLWMRLHKTGDEDQLRELLDPDVRVRFENREFHGREELIKFIHRHRREARTDVKIRDFRVQGDKVIVHGELILQFDGVRFNHDLILITRKIDGRWRIEEIEVR”, the protease stability score was found to be 1.84.
Next, “DEEDREAHEAIRILIDLLRTGDFDSLTRLADPHVRLDIGDKRLHGMKDFSRWILELRIHNFDLRHFDLVGDKIHVEGSLHTEFNGKHHEIHIQINITKVNGRWKIDEVTSL”: 1.63; “DEEDREKDDLLRRFITAIYTGDERAIKEYLDPHVRTVFNGQEKHGREEVTTLVWQIMRELGIKVIRTHDEREQGNKVELHLELFVGNKRLEINVFAEKVDGKWILRQFIIKVD”: 1.2; “DEEDRELEEMLELIIHAFKTGDEEIMKRLFDPNTRIRINGREEIGWEHAVKILREWRFRHVILRRKHKQGDKLHYEFEVHGHFDGQQDSVHVRILILKVNGRWIITEYIFV”: 2.51.
Next, “DEEDRELERIYQELFEAWLTGNEDDLKKLADPNVRVDINGKDKVGREQEIEDLRRVKNMKVKLEDSDIIGDWITVDVVINFNGREIRMELEWRVINGKVKRVIVRYR”: 1.2; “DEEDRFAEEYIRLLHEIIKTGDWHQLKRMVDPNARWDVNGVDVIGMEEYVRVWKDEIDRFKGLRLHPRIRHVDFINGRIHVHSEKKVEYGDKEETFETKRHIFLFNGVDTHFSIRID”: 0.278; “DEEDRHAEEVFRTLIHAWHTGDEDTLKRMLDPDVKILIGDKDHHGRDFFAREMHEISKHLRVHFELHELDVINGRVHVHGTLVITINGREIRITVHIHVLIVDGRVKLQKWIKV”: 0.583.
Next, “DEEDRHLEEFIRLWLHFFFTGDWEFHMKNADPNVKLDAENRSVHGRDDASRTLVEIVRRLGIDHVELKDSHVIDGVIELHLELKIGDKRRTMHIHINIFNGRIRSVRIHFS”: 1.28; “DEEDRKSERVLKEFLHDVLTGDEHTLNRLADPHVRLEVGDKEDHGREKLAKYMVRADHIEHVELRHHHFQGDKIHLHVKIRENVNGREVIFESIEIWLKIDGRWILDSLIVK”: 0.091; “DEEDRQAEHIARLVIEELLTGDEESFSHLVDPDTRSEFDGKEFIGREWFNKWLRRILEEIRFHINPTEIRYQGDKAIVHGRLHLHYNGQDVHITVHYKLIVINGRHKRIKEERS”: 1.3.
With “DEEDRRAKEIMRLLLEDFHTGNEDSLRELMDPTTRNDLVVNGQEHVIHGRETFAEWESKWIKHLRMNLRLRHVNAFNGQVRLETELNLEVNGRIIILDTEVIVHVYNGRIHSFTHRIK”, the protease stability score was 0.236.
Next, “DEEDRRYEHWFKLFLEIFLTGDFDQWKKLLDPHVRVDVNGQERVGRDQISEAMRRLLEILGVDHIEVEEVHLQGEKVNLNTQENVNGVETHSRIHVIVINGRLRHSKMDIN”: 1.29; “DEEDRYMKELLEELLKDFETGNWDRLISLLDPHMRIQAENVTLHGRETTSRWLQEITSRVKGLRLHIESEEIQGDKAIIDGINNVNGREIRTILFSVKVDGRWLIKSIIIL”: 1.28; “DEEEAHTRHILELFKHNYHTGDEDLFRRLLDPNVRLHIDGVNIHGREEVVEVLVKLAHEIRVELRVKHIRIINGVAEVDIELTIHQGDKHESRKIHLFILKVNGRWRVESIQWR”: 1.42.
Next, “DEEEDAKKFVLDVWRETLETGDEKLLLELIDPHVRIIIGDKEDHGRETLLHHFREIRFEDFQVRDIRVIGEKIHIHGEHLIRFDGRRVRLEIEIIMTKINGRWLVEEIRIR”: 2.58; “DEEEDDVRRLIERFQHNFDTGNWHMLEHLVDPHARINFDGVESHGMELIVHVNEHMRIHDTHIRDIRIDVVGDKVFVENIVRVESEINGQHRDVEMRISMVITKVNGRWLIKEIRIKIH”: 0.974.
Next, “DEEEDHERHLVERTIHSLETGDWHETHELLDPHVRIQIVQGDKSLDLHGREAAVKFFLDWLRRVPNMRLEFKRIEDYDGVSHIDGVLRIGDKEMRFEIEIHVFNGVVKRMHIRMH”: 1.38; “DEEEDHERRFLEELLRDWVTGDENKLDELFDPDARNYINGRRYHGREDVREVLKLLKDRIDHIEMTDIKDVKIQGDKMRFDTRVHLRQGDKTIRIKTHFVIWKVNGKWRMEAVVIV”: 1.02; “DEEEDKLRKFADHFWHLRLTGDFDIWEHLADPDTKENQGEYSNIGREHISEYNLRETRKFKNIRMHIRRKTIQGDKIKIDGVLIFNGVEIEVILILIVINGRIREVRVHIE”: 1.6.
Take “DEEEDLQRHVADEFLHNLLTGNEHDIERLMDPNVKLIMDVNGVKLHFHGREQVLKLLREWRLDHWEVKRRHLVGDYAVLDGHQQGVIDGREVRTDSEIELRLYNGRMKEVTIRVR”: the protease stability score amounted to 1.47.
In turn, “DEEEDRIMKMLRLIILEIVTGDEEKFRHLFDPDARFIVGNKTYHGWEMWHEEFRHIRITEMELEHYDVINGRAHLHTRLRGKINGREIDTETRLIVVVINGKIHSIELRIH” displayed a protease stability score of 2.18.
Next, “DEEEDRLRRLAKTLLENWVTGDEEMHQRFADPNTRLNVDVDGKEIHRHGREEMLKDLRHELERVDHWELRLRDMKIFDGVVDIDGELILNINGKVIRQEVRIIMVIVNGRLRSVHFQVH”: 1.26; “DEEEDTARFLMELILHDLETGDEERLFRLMDPHTRLDIDGQQYHGRELVLQLHETLLERWGVERVEAFLRRTEIQGEKVLSDVHRHFNGVTVKTHIVLEKFNGRWSTKTLEYK”: 0.6; “DEEEDVMRKWLQLFLEAFETGDFRLIEEMFDPNTRLDVGDKEYHGRDEIARVIRTLWEEMRFEHFHIHRFDVFNGVANSDTHVVGKIGDKRRDVRVHIILIIVNGKLKKFRIETR”: 1.71.
The sequence “DEEEEALEEVLRLLSKAILTGDEDQMRELVDPHVRVHVGDKDLIGWDRYKRHTKEMRIIIHRFELRDKRRVGNKLEFDGHMDYELIVNGRTWKHREDMFMVIVKVNGKWHIHYEQVD” had a protease stability score of 0.88.
“DEEEEALRLAFELIYTVLRTGDEEMWRRMADPDTKIDIGDKHFHGREHVEYVLRELHKRIDHIDHSHIDHVHVQGDKVHMDTTIVGTYDGQRTNLKTSFIVVKINGKWVMTSVRFR” gave a protease stability score of 1.38.
As for “DEEEEATEKFFEKLLRSWKTGDEKSYEELLDPHARSDINGKIFHGRDKLSQMLHEFLKRVKGITIHDVKVHDSRLIDGRAILDGRVDMKVGDKRFELNREVVTLKVDGRWILESEIVK”, the protease stability score stood at 0.767.
Sequence “DEEEEDAERLLRELITWLYTGDFESLEKLMDPTTKLIQGDKTFIGREYLSKLFHDWGHTNVRAKLEDIKVVNGQVHIYGRLHYGDKTSETHFIVRKVNGKWLIKIVEFR” had a protease stability score of 1.62.
Next, “DEEEEDAHRLMHNVVHALRTGDWEEFSRLLDPNVMVIIGDKLFIGRETVLEMIKRMLDDWGVTRIHLHIHSKHVQGNKLHVDSQIDVNGRTTRVHIDATKIDGRWLLKRIEIK”: 2.14; “DEEEEDFRMAEHFIRKSLKTGDERLREELMDPHVRIHQGDKHFHGREDASELHRQFDHIEHVHLKDFHFYNGRVIMHMHVLGHWDGRRTRFDTHVTATKIDGRWIVKEWTII”: 0.552.
Next, “DEEEEDIDFLIHLLVKTIKTGDEHIFRRLMDPHVRMHAEGRELHGREVVVERWAKIMRELRITHIEVTHKDVVDGQVELHMRIKFRVGDKEKETRVELHAEKIDGRWVIRSIHIL”: 1.75.
“DEEEEDIEKFFKEWTRNVLTGNWERLRELADPHAKAVVDGVETHGMESLDKLIDESERKLGVDHTHLESVHVQGEWIHFHLRIIIGDKYLKLHIHTLVIDGRVKSMNVEFHSD” yielded a protease stability score of 1.16.
Next, “DEEEEDIRRAVTRFIEVILTGDEHSLERLMDPHVKIDIGDKHLHGREAKDRLRDEMRRKFKNLRIHMRDWHLEIYDGVAHSTFDFELEINGKRTHLELRVDVRKVDGRWLIDSYEIKIR”: 1.15.
Next, “DEEEEDMKNMLRIWEETVETGDEHTKERFADPNMRLVVNGVSSHGMESFKTVIKWEHERYDHLKKIEIHRLEFFDGRVIIDGTFTGNIDGVEYKRRIILIMVKVDGRWLLEEVIIH”: 1.39.
